Results taken from paper PMC5904244, “Oligomeric states in sodium ion-dependent regulation of cyanobacterial histidine kinase-2” (Protoplasma, 2017).
Several values for one entry are separate records, joined by “and”; a condition that tells them apart may be missing. Equal values may be shown once.

B1: full-length Thermosynechococcus elongatus BP-1 Hik2 (enzyme, UniProt Q8DMC5 1-385, looked up)
chain: MLWPASEEFAALCRTQLELVVNSLGASSLAVYLSETLNDSPSWSPVAVYPEAASLLSLAIPPTLPPPTQVPETSLSHYPQQVVSSLANQLILPLMYQNWVLGVLVAQRQHRPWLAAEQAQLQQVAQTLAIACVLDQRQQWLSHSPAQPLDQRQQRFDDLLHQLRNPVAAIRTFVKLLLKRLEPDHKGRPLAEGIAKETERLMALLEDYRQQRNDIPALTGSQPLPLAGKPLDLAETLLPLISAAQARAEMEGKTFVVEIPPQLPPIWLEERVLQEVVGNLLDNAFKYTPKGGTIGLRLMLSSPALELTVWDTGCGIPKEAQPRLFERGYRGVQADSGIEGSGLGLAIAQDLLRPYGLSLRVTSPYAGDRGTAFTLAIPWQMKVEP
notes: Histidine kinase 2 (Hik2), tlr0195, Thermosynechococcus elongatus BP-1, full length; calculated molecular mass 44.2 kDa; The forward primer has catatgATG, so one extra N-terminal Met may be present; A C-terminal His tag from the vector is surmised
B2: truncated DHp domain of Thermosynechococcus elongatus BP-1 Hik2 (domain or fragment, UniProt Q8DMC5 142-270, looked up)
chain: SHSPAQPLDQRQQRFDDLLHQLRNPVAAIRTFVKLLLKRLEPDHKGRPLAEGIAKETERLMALLEDYRQQRNDIPALTGSQPLPLAGKPLDLAETLLPLISAAQARAEMEGKTFVVEIPPQLPPIWLEE
notes: Hik2 (tlr0195), Thermosynechococcus elongatus BP-1, DHp domain, amino acids 142-270; calculated molecular mass 15.1 kDa; The forward primer has catatgATG, so added N-terminal Met residues are likely; A C-terminal His tag from the vector is surmised
B3: truncated core kinase domain of Thermosynechococcus elongatus BP-1 Hik2 containing only the DHp and CA subdomains (domain or fragment, UniProt Q8DMC5 142-385, looked up)
chain: SHSPAQPLDQRQQRFDDLLHQLRNPVAAIRTFVKLLLKRLEPDHKGRPLAEGIAKETERLMALLEDYRQQRNDIPALTGSQPLPLAGKPLDLAETLLPLISAAQARAEMEGKTFVVEIPPQLPPIWLEERVLQEVVGNLLDNAFKYTPKGGTIGLRLMLSSPALELTVWDTGCGIPKEAQPRLFERGYRGVQADSGIEGSGLGLAIAQDLLRPYGLSLRVTSPYAGDRGTAFTLAIPWQMKVEP
notes: Hik2 (tlr0195), Thermosynechococcus elongatus BP-1, kinase domain (DHp and CA), amino acids 142-386; calculated molecular mass 26.2 kDa; The forward primer has catatgATG, so added N-terminal Met residues are likely; A C-terminal His tag from the vector is surmised
B4: full-length Synechocystis sp. PCC 6803 histidine kinase 2 (Hik2) (enzyme, UniProt P73276 1-434, looked up)
chain: MAGSISSMYSPSAGLISLCQSQVRLLQQGLRVDWCGVYLNQEETEQGLVPLVVSHGSTLVESESYGLISLPQGEVSPPMDDFSLPAVPVGVGQLSRRSRLEPPPFDADKRLVLPLVYGEEMVGLLVIHRSQGQWHGEEMMQLEAIAKSLAVACLLDQQQDWYRQAWEEQNQQYQWERQHWADLLHQLRNPLTALKTFSKLLLKRWHGDNKSQQVVEGIVRQGEHLQELLQSFEASQSQGPEAVPLLSSSPVTTIQVLPPADRVETMPLANFSLGEVLPPILLAHQAIAAERNITLTAQIALIDTVVMANRLALREVVNNLLDNGIKYTPNGGLVEVSLALEKVSSSGMDWATLAIADTGYGIPPEDQQKIFERNYRGVQGRGSINGTGLGLAIVADLVAQMGGKITVTSPNGLSRDPDQPGSTFTLWLRSGEQV
notes: Histidine kinase 2 (Hik2), slr1147, Synechocystis sp; PCC 6803, full length; calculated molecular mass 48.5 kDa

How the values were obtained:
[1] = target: the molecule itself; experiment: SEC; Superdex 200 10/300GL, 20 mM Tris-HCl pH 7.6, 10 mM NaCl (low salt); apparent molecular masses from a calibration curve
[2] = target: the molecule itself; experiment: SEC; Superdex 200 10/300GL, 20 mM Tris-HCl pH 7.6, 500 mM NaCl (high salt); apparent molecular masses from a calibration curve
[3] = target: the molecule itself; experiment: negative-stain transmission electron microscopy, single-particle analysis; dilution series on carbon-coated grids, 2% uranyl acetate; class averages assigned subjectively to oligomeric families; buffer and salt not stated
[4] = target: the molecule itself; experiment: cross-linking; DSP (1-11 mM; 2 mM in later experiments), 2-50 uM Hik2, 25 mM HEPES-NaOH pH 7.5, 5 mM KCl, 5 mM MgCl2, 23 °C, 10 min; no NaCl treatment; non-reducing 10% SDS-PAGE, Coomassie

Protein	stoichiometry N [1]	stoichiometry N [2]	stoichiometry N [3]	stoichiometry N [4]
B1	6	4		
B2	8	6		
B3	6	4		
B4			2 and 3	4 and 6 and 8
